From patent US6262024 come the findings set out here.

This assay addresses N-methyl-D-aspartate (NMDA) receptor (rat).

neuron regulatory factor (NRF) from rat showed an anterior thalamic neuron survival over controls of 700%.
